Data as given in the nanobody polyreactivity screen of Harvey et al. (2022).

Experiment: yeast display, Sf9 membrane polyspecificity reagent, FACS + sequencing; frameworks hold sequencing errors
Summary of the method: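 In a synthetic yeast display library (Saccharomyces cerevisiae BJ5465), nanobody expression was induced with galactose for 36–48 hours. FACS gates were set low and high (top ~1%) using anti-HA fluorescence for expression and streptavidin fluorescence for binding of the Sf9 membrane reagent. Each polyreactivity label is drawn from the gate of origin.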

Row | Sequence | polyreactivity (PSR sort gate)
1 | QVQLVDSGGGLVQAGGSLRLSCAASGITFYYYAMGRYIQAPGKERELVAAISWSGGSTYYADSVKGRFTISRDNAKNTVYLPMNSLIPEDTAVYYCAATPYQYHDGGYWGQGTQVTVSS | high polyreactivity
2 | QVQLVDSGGGLVQAGGSLRLSCAASGITFYYYAMGWYRQAAGKERELVAAISSRGGSTYYADSVKGRFTISRDNAKNTVYLQRNSLKPEDTAVYYCAALYGVSEEDDYWGQATQVTVSS | high polyreactivity
3 | QVQLVDSGGGLVQAGGSLRLSCAASGITFYYYAMGWYRQAPGKERELVAAISSRGGSTYYADSVKGRFRISRDNAKNTVYLQMNSLNPEDTAVYYCAAGRVGAWTFDYWGEGTQVTVSS | high polyreactivity
4 | QVQLVDSGGGLVQAGGSLRLSCAASGITIEYNDMGWYRQAPGTERELVAAISLSSGSTYYADSVKGRFTISRDNAKNTVYLQMNSLKPEDTAVYYCNADTIIYEGGYWGQGTQVTVSS | low polyreactivity
5 | QVQLVDSGGGLVQAGGSLRLSCAASGITIVYYAMGWNRQAPGKERELVAAITRGANTYYADSVKGRFTISRDNAKNTVYLQMNSLKPEDTAVYYCAADGWVGAWWYVLDVRYDYWGQGTQVTVSS | low polyreactivity
6 | QVQLVDSGGGLVQAGGSLRLSCAASGLIFDVYAMGWYRQAPGKERELVAVISSDGGTYYADSVKGLFTISRDNAKNTVYLQMISLKPEYTAVYYCAARRWREGARYSYWGQGTQVTVSS | high polyreactivity
7 | QVQLVDSGGGLVQAGGSLRLSCAASGLNFVINAMGWYRQAPGKERELDATISSGVSTNYADSVKGRFTISRDNAKNTVYLQMNSLKPEDTAVYDCNKGQTVSRGYRLYERYDYWGQGTQVTVSS | low polyreactivity
8 | QVQLVDSGGGLVQAGGSLRLSCAASGLTFTRYAMGWYRQAPGKERELVAAISKNGGSTYYADSVKGRFTISRDNAKNTVYLQMNSLKPAETAVYYCAARRYGPGRYPEDYWGQGTQVTVSS | high polyreactivity
9 | QVQLVDSGGGLVQAGGSLRLSCAASGLTIPVYTMVWYRHAPGTEREFVAAITYNGGRTYYADCVKGRFTISRDNAKNTVYLQMNSLKPEDTAVYYCAAEYGTYFVRYYAGASYRYGYWGQGTQVTVSS | low polyreactivity
10 | QVQLVDSGGGLVQAGGSLRLSCAASGNTFSGNTMGWYRQAPGKERELVAAIRFTGGSTTYADSVKGRFTISRDNAKNTVYLQMNSLKPEDTAVYYCNTDWVSFRSIYHEYDYWGQGTQVTVSS | low polyreactivity
11 | QVQLVDSGGGLVQAGGSLRLSCAASGRIFFPNGMGWYRQAPGKERELVATISRIGGSTYYADSVKGRFTISRDNAMNTVYLQRNSLKPEDTAVYYCAAQYSYGVYWTLPYGYNYWGQGTQVTVSS | low polyreactivity
12 | QVQLVDSGGGLVQAGGSLRLSCAASGRIFGSYVMGWYRQAPGKERELVAAITDGGTTYADSVKGRFTISRDNAKNTVYLQMNSLKPEDTAVYYCAADLYDWPLAWWEYYYWGQGTHVTVSS | low polyreactivity
13 | QVQLVDSGGGLVQAGGSLRLSCAASGRIFPGKVMGWYRQAPGKERELVAAISSSGGSTYYADSVKGRFTISRDNAKNTVYLQMNSLKPEDTAVYYCAADSSDWPYDYWGQGTQVTVSS | low polyreactivity
14 | QVQLVDSGGGLVQAGGSLRLSCAASGRIFQPNAMGWYRQAPGKEMEFVAAISSSGGSTFYADSVKGRFTISRDNAKNTVYLQMNSLKPEDTAVYYCAKRYGYTEYYYWGQGTQVTVSS | high polyreactivity
15 | QVQLVDSGGGLVQAGGSLRLSCAASGRIFRGYAMGWYRQAPGKERELVAAINRGSSTYYADSVKGRFTISRDNAKNTVYLQMNSLKPEDTAVYYCAVKGYLPYTGIFDYWGQGTQVTVSS | high polyreactivity
16 | QVQLVDSGGGLVQAGGSLRLSCAASGRIFRLYAMGWYRPAPGKERELVATITRSGVSTYYADSVKGRFTISRDNAKNTVYLQMNSLKPEDTAVYYCAVDRWGRYYATQYTFDYWGQGTQVTVSS | high polyreactivity
17 | QVQLVDSGGGLVQAGGSLRLSCAASGRIFSVYAMGWYRQAPGNERELVAAITRVGSTNYADSVKGRFTISRDNAKNTVYLQMNSLKPEDTAVYYCAASKYGSLSGYWGQGTQVTVSS | high polyreactivity
18 | QVQLVDSGGGLVQAGGSLRLSCAASGRISNYYAMGWYRQAPGKERELVAAITRSGGSTYYADSVKGRFTISRDNAKNTVYLQMNSLKPEDTAVYYCATDWTVRYDYWGQGTQVTVSS | high polyreactivity
19 | QVQLVDSGGGLVQAGGSLRLSCAASGRLFDRNAMGWYRQGPGKERELVARIDPGDDTNYSYSVTGRFTISRDNAKNTVYLQMNSLKPEDTAVYYCATDPDYVLYRTAYYEYDYWGKGTQVTVSS | low polyreactivity
20 | QVQLVDSGGGLVQAGGSLRLSCAASGRTFATYAMGWNRQAPGKERELVAAISSGGSTYYADSVKGRFTISRDNAKNNVYLQMNRLKPDDTAVYYCAAEVWFPDRWMDYWGQGTQVTVSS | high polyreactivity
21 | QVQLVDSGGGLVQAGGSLRLSCAASGRTFGAYDMGWYRQAPGKERELVAAISSGATTNYADSVKGRFTISRDNAKNTVYLQMNSLKPEDTAVYYCAASVYRYIYAFNYWGQGTQVTVSS | low polyreactivity
22 | QVQLVDSGGGLVQAGGSLRLSCAASGRTFGVNAMGWYRQAPGKERELVAAISSGSSTYYADSVKGRFTISRDNAKNTVYLQMNSLKPEDTAVYYCAAKYWSYYQSRSLSYRYFYWGQGTQVTVSS | low polyreactivity

Row | Sequence | polyreactivity (PSR sort gate)
23 | QVQLVDSGGGLVQAGGSLRLSCAASGRTFRHNAMGWYRQAPGKERELVATISNRGGTSYYADSVKGRFTISRDNANNTVYLQMNSLKPEDTAVYYCAARVGVLGYVRYGYWGHGTQVTVSS | low polyreactivity
24 | QVQLVDSGGGLVQAGGSLRLSCAASGRTFSSYAMGSYRQAPGKERELVAAINWSGASTYYADSVKGRFTISRDYAKNTVYLQLNSLKPEDTAVYDCAKSLYVGKFWQIRSSVDYWGQGTQVTVSS | low polyreactivity
25 | QVQLVDSGGGLVQAGGSLRLSCAASGRTFTIYAIGWYRQAPGKEREFVASITGSDGSTYYADSVKGRFTISRDNAKNTVYLQMNSLKPEDTAVYYCAAATSSAYDYWGQGTQVTVSS | low polyreactivity
26 | QVQLVDSGGGLVQAGGSLRLSCAASGRTFYAYAMGWYRQAPGKERELVATISSSDASTYYADSVKGRFTISRDNAKKTVYLLMNSLKPEDTAVYYGNADFVRPSWARGRNNGLYYWGQGTQVTVSS | low polyreactivity
27 | QVQLVDSGGGLVQAGGSLRLSCAASGRTFYWYTMGWYRQAPGKERELVAAISTRGVRTYYADSVKGRFTISRDNAKNTVYLQMNSLKPADTAVYYCNDEYNPTYYTSHDDSDYWGQGTLVTVSS | low polyreactivity
28 | QVQLVDSGGGLVQAGGSLRLSCAASGRTSIWNAMGWYRQAPGKERELVASISWSGGSTYYADSVKGRFTISRDNAKNTVYLQMNSLKPEDTAVYYCAKTGYFLVFNEHLHKKRYDSWGQGTQVTVSS | low polyreactivity
29 | QVQLVDSGGGLVQAGGSLRLSCAASGRTSYENAMGWYREAPGKERELVAAINVSGGSTYYADSVKGRFTISRDNAKNTVYLQMNSLKPEDTAVYYCAADNPYADARSSWYEYNDWGQGTQVTVSS | high polyreactivity
30 | QVQLVDSGGGLVQAGGSLRLSCAASGRTYDTNAMGWNRQAPRKETELVAVITARGGNTSYADSVKGRFTISRDNAKNTVYLQMNSLKPEDTAVYYCAALYFKVGYYTYEYWGQGTQVTVSS | low polyreactivity
31 | QVQLVDSGGGLVQAGGSLRLSCAASGRTYTYYAMGWYRQAPGKERELVAAISKSGGSTYYADSVKGRFTISRDNAKNTVYLQMNSLKPEDTAVYYFAKVYRYSSLYYYWGQGTQVTVSS | low polyreactivity
32 | QVQLVDSGGGLVQAGGSLRLSCAASGSIFDFYAMGWYRQAPGTERELVAAINSGGSTNYADSVKGRFTISRDNAKNTVYLQMNSLTPEDTAVYYCAARHPPYRGGYWGQGTQVTVSS | low polyreactivity
33 | QVQLVDSGGGLVQAGGSLRLSCAASGSIFEINAMGWYRQAPGKERELVAVITDSGSTYYEDSVKGRFTISRDNAKNTVDLQMNSLKPEDTAVYYCAAEYSLLFFLMDYWGQGTQVTVSS | low polyreactivity
34 | QVQLVDSGGGLVQAGGSLRLSCAASGSIFGQYTMGWYRQAPGKERELVAAINSSGDSTFYADSVKGRFTISRDNAKNTVYLQMNSLKPEDTAVYFCAADPYRYYFRAYGWHREGYYWGQGTQVTVSS | low polyreactivity
35 | QVQLVDSGGGLVQAGGSLRLSCAASGSIFPPYAMGWYRQAPGKERELVAAITRSGGSTYYADSVKGRFTISRDNAKNTVYLQMNSLKPEDTAVYYCAARYPGGYGYWGQGTQVTVSS | high polyreactivity
36 | QVQLVDSGGGLVQAGGSLRLSCAASGSIFRYNDMGWYRQAPGKERELVATITSGTNTYYADSVKGRFTISRDNEKNTVYLQMNSLKPEDTAVYYCAAGYPSWYYGYPYDSWGQGTQVTVSS | low polyreactivity
37 | QVQLVDSGGGLVQAGGSLRLSCAASGSIFRYYAMGWYRQAPGKEREFVAAINTNDAGTYYADSVKGRFTISRDNAKNTVYLQMNSLKPEDTAVYYCAADTGYPFWYDYWGQGTQVTVSS | high polyreactivity
38 | QVQLVDSGGGLVQAGGSLRLSCAASGSIFRYYAMGWYRQAPGKEREFVAAITYSGGSTHYADSVKGRFTISRDNEKNTVYLQMNSLKPEDTAVYYCAADYYWRVHYGYWGLGTQVTVSS | high polyreactivity
39 | QVQLVDSGGGLVQAGGSLRLSCAASGSIFSFYAMGGSRQAPGKERELVAAIDGGGSTDYADSVKGRFTISRDHAKYTVYLQMNSLKPEDTAVYDCAARDIYHYDWGQGTQVTVSS | low polyreactivity
40 | QVQLVDSGGGLVQAGGSLRLSCAASGSIFVRYTMGWYRQAAGKERELVAGIRTNGSSTYYADSVKGRFTISRDNAKNTVYLQMNSLKPEDTAVYYCAARLYRYFRQYDYWGQGTQVTVSS | low polyreactivity
41 | QVQLVDSGGGLVQAGGSLRLSCAASGSIFYPYAMGWYRQAPGKEREFVAGITTRGGSTYYADSVKGRFTISRDNAKNTVYLQMNSLKPEDTAVYYCAAYSSVWPNFGYWGQGTQVTVSS | high polyreactivity
42 | QVQLVDSGGGLVQAGGSLRLSCAASGSIFYQYAMGWYRQAPGKQRELVAAISRSGGSTYYADSVKGRFTISRDNAKNTVYLQMISLKPEDTAVYYCAARAVRAAYDYWGLGTQVTVSS | low polyreactivity
43 | QVQLVDSGGGLVQAGGSLRLSCAASGSIFYTNAMGWYRQAPGKERELVAAISYGGTTTYADSVKGRFTISRDNAKNTVYLQMNSLKPEDTAVYYCNADWLYYGYWGYGHIWYDYWGQGTQVTVSS | low polyreactivity
